Experimental data from the supplement of paper PMC10724198.
± gives the standard deviation of the averaged measurements.

How the values were obtained:
[1] = system: Saccharomyces cerevisiae; assay: protein stability index of tFT-peptide fusion (C-terminal peptide) (PSI (0-1 scale)); higher = more stable (slower turnover)
Description: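 MPS profiling in S. cerevisiae of the tFT-X12 degron library: putative degron peptides plus stable controls, 12 aa, fused to the C-terminus of a sfGFP-mCherry timer. Cells are FACS-sorted into 8 mCherry/sfGFP bins and deep-sequenced. PSI runs from 0 (unstable) to 1 (stable). Backgrounds are wild type, das1Δ and doa10Δ at 30 °C, and wild type, das1Δ, cdc34-1 and cdc53-1 at 37 °C; 2-3 technical replicates each.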

[2] = system: Saccharomyces cerevisiae; assay: as above; details: genetic background: wild type; temperature: 30 C
[3] = genetic background: cdc34-1, temperature: 37 C
[4] = genetic background: cdc53-1, temperature: 37 C
[5] = genetic background: das1 deletion, temperature: 30 C
[6] = genetic background: das1 deletion, temperature: 37 C
[7] = genetic background: doa10 deletion, temperature: 30 C
[8] = genetic background: wild type, temperature: 30 C
[9] = genetic background: wild type, temperature: 37 C
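Also: PSI is a weighted mean of sequencing reads over stability bins, variants kept only with over 10 reads, mCherry proximal and sfGFP distal, peptide attached via GGGS linker.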

Sequence | protein stability index [1, 3] | protein stability index [1, 4] | protein stability index [1, 5] | protein stability index [1, 6] | protein stability index [1, 7] | protein stability index [1, 8] | protein stability index [1, 9] | protein stability index [2]
QPSSFDMLGLLL | 0.6791 ± 0.0055 | 0.738 ± 0.019 | 0.654 ± 0.0092 | 0.752 ± 0.023 | 0.671 ± 0.053 | 0.663 ± 0.02 | 0.709 ± 0.0089 | 0.742 ± 0.049
VFSGGGFFLKVV | 0.67453 ± 9.2e-05 | 0.765 ± 0.01 | 0.651 ± 0.024 | 0.755 ± 0.022 | 0.19 ± 0.0039 | 0.215 ± 0.023 | 0.504 ± 0.02 | 0.3766 ± 0.0029
TVGVGWVWVGVL | 0.5667 ± 0.00058 | 0.611 ± 0.026 | 0.446 ± 0.026 | 0.649 ± 0.015 | 0.367 ± 0.0044 | 0.403 ± 0.015 | 0.576 ± 0.015 | 0.467 ± 0.015
FIMHRIFMALVI | 0.386 ± 0.055 | 0.415 ± 0.03 | 0.381 ± 0.042 | 0.4786 ± 0.0006 | 0.29 ± 0.017 | 0.253 ± 0.025 | 0.359 ± 0.0092 | 0.341 ± 0.14
RITGCWKTYKMQ | 0.6341 ± 0.00082 | 0.721 ± 0.0019 | 0.615 ± 0.0094 | 0.758 ± 0.055 | 0.14145 ± 6.9e-05 | 0.164 ± 0.026 | 0.342 ± 0.073 | 0.308 ± 0.055
MRGPAWVCVLYS | 0.637 ± 0.026 | 0.711 ± 0.012 | 0.59 ± 0.044 | 0.69291 ± 0.00012 | 0.284 ± 0.0086 | 0.339 ± 0.023 | 0.5348 ± 0.0048 | 0.485 ± 0.028
CQVSEWIRYRFL | 0.681 ± 0.074 | 0.743 ± 0.01 | 0.637 ± 0.034 | 0.734 ± 0.018 | 0.247 ± 0.0032 | 0.252 ± 0.0098 | 0.386 ± 0.016 | 0.417 ± 0.02
YFFFLFFLLPPF | 0.453 ± 0.045 | 0.477 ± 0.025 | 0.408 ± 0.041 | 0.505 ± 0.0069 | 0.416 ± 0.007 | 0.356 ± 0.034 | 0.498 ± 0.0073 | 0.374 ± 0.029
VGRVIVIVVAGV | 0.329 ± 0.012 | 0.395 ± 0.016 | 0.274 ± 0.036 | 0.4541 ± 0.0045 | 0.236 ± 0.0065 | 0.267 ± 0.028 | 0.423 ± 0.022 | 0.375 ± 0.033
LGRVSAKFFCVL | 0.654 ± 0.066 | 0.74 ± 0.013 | 0.646 ± 0.014 | 0.7237 ± 0.0027 | 0.13 ± 0.015 | 0.134 ± 0.022 | 0.246 ± 0.018 | 0.239 ± 0.022
RVTYWKAVLVRL | 0.47 ± 0.07 | 0.461 ± 0.022 | 0.44 ± 0.031 | 0.6 ± 0.017 | 0.108 ± 0.025 | 0.109 ± 0.025 | 0.13 ± 0.0084 | 0.212 ± 0.016
ESSRNILLWRTI | 0.69 ± 0.041 | 0.7554 ± 0.00093 | 0.641 ± 0.048 | 0.755 ± 0.032 | 0.247 ± 0.046 | 0.264 ± 0.037 | 0.565 ± 0.018 | 0.443 ± 0.073
MFLHLGLFIMSH | 0.348 ± 0.011 | 0.4065 ± 0.0032 | 0.303 ± 0.025 | 0.457 ± 0.0099 | 0.2787 ± 0.0023 | 0.306 ± 0.014 | 0.435 ± 0.006 | 0.382 ± 0.037
AIMFLVLGYVFF | 0.262 ± 0.085 | 0.395 ± 0.018 | 0.269 ± 0.03 | 0.462 ± 0.019 | 0.255 ± 0.036 | 0.276 ± 0.027 | 0.452 ± 0.019 | 0.378 ± 0.034
HLGNTMIKKLIG | 0.695 ± 0.049 | 0.722 ± 0.046 | 0.621 ± 0.012 | 0.728 ± 0.035 | 0.405 ± 0.033 | 0.459 ± 0.064 | 0.6202 ± 0.0029 | 0.516 ± 0.023
VISGFVLVFRVR | 0.509 ± 0.0038 | 0.543 ± 0.029 | 0.356 ± 0.022 | 0.591 ± 0.066 | 0.379 ± 0.026 | 0.344 ± 0.032 | 0.566 ± 0.035 | 0.441 ± 0.028
NVALHPGVPRKC | 0.656 ± 0.038 | 0.715 ± 0.018 | 0.677 ± 0.026 | 0.75 ± 0.031 | 0.664 ± 0.018 | 0.649 ± 0.019 | 0.702 ± 0.019 | 0.341 ± 0.036
FFCLVEVFVGVF | 0.0707 ± 0.051 | 0.108 ± 0.023 | 0.115 ± 0.044 | 0.177 ± 0.0027 | 0.089 ± 0.018 | 0.0928 ± 0.033 | 0.107 ± 0.014 | 0.2798 ± 0.0012
TRVVSPNVILMC | 0.6679 ± 0.00086 | 0.7417 ± 0.0073 | 0.61 ± 0.027 | 0.725 ± 0.019 | 0.5135 ± 0.0048 | 0.526 ± 0.022 | 0.673 ± 0.009 | 0.505 ± 0.017
SWFNLLSILPRD | 0.699 ± 0.022 | 0.7053 ± 0.0039 | 0.7 ± 0.088 | 0.784 ± 0.022 | 0.714 ± 0.029 | 0.683 ± 0.019 | 0.736 ± 0.045 | 0.7305 ± 0.0018
